In patent US20210285024:

Experiments:
[1] = tested on: 8 amino acid peptide GEEEGEEY (last C-ter alpha-tubulin 1A/1B)
[2] = tested on: recombinant engineered tyrosinated telokin containing the C-terminal sequence of alpha tubulin
[3] = tested on: tubulin purified from Spodoptera Frugiperda Sf9 cells (fully tyrosinated; used as purified tubulin or polymerised microtubules)
[4] = tested on: bacterially produced recombinant human tubulin alpha-1A chain
[5] = tested on: polymerized microtubules (MT)
[6] = tested on: recombinant alpha tubulin produced in bacteria

Sequence of recombinant human Vasohibin-2 (VASH2) (chain, as listed by the source): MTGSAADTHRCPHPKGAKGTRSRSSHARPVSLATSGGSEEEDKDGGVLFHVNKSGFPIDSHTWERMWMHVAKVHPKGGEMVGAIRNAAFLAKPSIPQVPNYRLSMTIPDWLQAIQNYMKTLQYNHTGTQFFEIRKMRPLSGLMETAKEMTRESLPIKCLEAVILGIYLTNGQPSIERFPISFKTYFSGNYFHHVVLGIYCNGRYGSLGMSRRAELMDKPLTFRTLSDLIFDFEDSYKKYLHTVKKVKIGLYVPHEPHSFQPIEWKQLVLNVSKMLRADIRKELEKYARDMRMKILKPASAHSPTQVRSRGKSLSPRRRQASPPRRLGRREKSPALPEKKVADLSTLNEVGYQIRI
Sequence of recombinant human Vasohibin-1 (VASH1) (chain, as listed by the source): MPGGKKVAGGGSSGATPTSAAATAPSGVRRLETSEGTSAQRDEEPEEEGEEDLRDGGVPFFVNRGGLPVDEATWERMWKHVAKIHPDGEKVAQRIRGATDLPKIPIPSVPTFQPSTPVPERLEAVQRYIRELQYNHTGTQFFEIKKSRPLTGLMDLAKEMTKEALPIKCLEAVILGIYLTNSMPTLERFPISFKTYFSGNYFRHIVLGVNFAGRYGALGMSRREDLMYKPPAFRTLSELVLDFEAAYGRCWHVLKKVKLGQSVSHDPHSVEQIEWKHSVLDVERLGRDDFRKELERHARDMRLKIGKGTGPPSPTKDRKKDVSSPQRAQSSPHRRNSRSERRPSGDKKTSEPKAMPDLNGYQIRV
Sequence of recombinant engineered tyrosinated telokin containing the C-terminal sequence of alpha tubulin (chain, as listed by the source, change not shown): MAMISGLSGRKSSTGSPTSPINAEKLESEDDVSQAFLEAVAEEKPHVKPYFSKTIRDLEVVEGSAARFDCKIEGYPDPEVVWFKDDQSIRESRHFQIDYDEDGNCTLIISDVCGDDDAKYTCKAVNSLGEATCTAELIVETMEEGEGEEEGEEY

| Substance | detyrosination of the peptide (dot blot) [1] | detyrosination activity [2] | in vitro detyrosination assay (TCPase activity, immunoblot) [3] | free tyrosine release (tyrosinase colorimetric assay, OD305) [4] | detyrosination [5] | detyrosination [6] | detyrosination (tubulin dimers (TD)) |
| --- | --- | --- | --- | --- | --- | --- | --- |
| recombinant human Vasohibin-2 (VASH2) | Recombinant human VASH2 and catalytically dead (VASH2D) produced in bacteria detyrosinates a 8 amino acid peptide consisting of GEEEGEEY | recombinant VASH2 protein showed detyrosination activity on polymerized microtubule, tubulin dimers, recombinant alpha tubulin, engineered Telokin protein containing C-terminal sequence of alpha tubulin and on synthetic peptides | VASH2 acted as an autonomous enzyme that did not require the small vasohibin binding protein as a chaperone to enzymatically be active | Release of tyrosine by VASH2 could be observed (Sample D-FIG. 16.) | Recombinant human VASH2 produced in bacteria detyrosinates polymerized microtubules (MT), tubulin dimers (TD) and recombinant alpha tubulin | Recombinant human VASH2 produced in bacteria detyrosinates polymerized microtubules (MT), tubulin dimers (TD) and recombinant alpha tubulin | Recombinant human VASH2 produced in bacteria detyrosinates polymerized microtubules (MT), tubulin dimers (TD) and recombinant alpha tubulin |
| recombinant human Vasohibin-1 (VASH1) | – | – | – | – | VASH1 was much less effective on microtubules and tubulin dimers | almost inactive on recombinant alpha tubulin produced in bacteria | VASH1 was much less effective on microtubules and tubulin dimers |
